For experiment [1], the target named is HA-tagged RON (Recepteur d'Origine Nantais, MST1R) stably expressed in A431 cells (human). The experiment in a line: two-colour single quantum dot tracking with two-state hidden Markov model; live A431^RON cells; 200 pM anti-HA-QD655 on HA-RON, then 50 pM QD605-conjugated EGF-biotin on endogenous EGFR; 34–36 °C, 20 frames per s; off-rate of hetero-interactions.

Experiment [2] shares this target. The experiment in a line: two-colour single quantum dot tracking with two-state hidden Markov model; live A431^RON cells, no ligand; HA-RON labelled with a mixture of anti-HA-QD605 and anti-HA-QD655 (monovalent Fab); 34–36 °C, 20 frames per s; off-rate of RON/RON homo-interactions.

As a reminder, the koff is the first-order rate constant of dissociation.

HA-tagged RON (Recepteur d'Origine Nantais, MST1R) stably expressed in A431 cells (human), sequence (Q04912 25-304 limits assumed, chain 1 of 2): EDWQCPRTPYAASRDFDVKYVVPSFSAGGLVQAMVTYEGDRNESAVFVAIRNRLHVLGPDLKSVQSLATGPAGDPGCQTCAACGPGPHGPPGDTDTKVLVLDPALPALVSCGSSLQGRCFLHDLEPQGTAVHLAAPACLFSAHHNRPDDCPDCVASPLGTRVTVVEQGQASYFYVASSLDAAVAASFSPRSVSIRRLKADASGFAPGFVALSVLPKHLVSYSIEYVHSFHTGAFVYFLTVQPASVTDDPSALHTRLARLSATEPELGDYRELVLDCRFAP
HA-tagged RON (Recepteur d'Origine Nantais, MST1R) stably expressed in A431 cells (human), sequence (Q04912 310-1400 limits assumed, chain 2 of 2): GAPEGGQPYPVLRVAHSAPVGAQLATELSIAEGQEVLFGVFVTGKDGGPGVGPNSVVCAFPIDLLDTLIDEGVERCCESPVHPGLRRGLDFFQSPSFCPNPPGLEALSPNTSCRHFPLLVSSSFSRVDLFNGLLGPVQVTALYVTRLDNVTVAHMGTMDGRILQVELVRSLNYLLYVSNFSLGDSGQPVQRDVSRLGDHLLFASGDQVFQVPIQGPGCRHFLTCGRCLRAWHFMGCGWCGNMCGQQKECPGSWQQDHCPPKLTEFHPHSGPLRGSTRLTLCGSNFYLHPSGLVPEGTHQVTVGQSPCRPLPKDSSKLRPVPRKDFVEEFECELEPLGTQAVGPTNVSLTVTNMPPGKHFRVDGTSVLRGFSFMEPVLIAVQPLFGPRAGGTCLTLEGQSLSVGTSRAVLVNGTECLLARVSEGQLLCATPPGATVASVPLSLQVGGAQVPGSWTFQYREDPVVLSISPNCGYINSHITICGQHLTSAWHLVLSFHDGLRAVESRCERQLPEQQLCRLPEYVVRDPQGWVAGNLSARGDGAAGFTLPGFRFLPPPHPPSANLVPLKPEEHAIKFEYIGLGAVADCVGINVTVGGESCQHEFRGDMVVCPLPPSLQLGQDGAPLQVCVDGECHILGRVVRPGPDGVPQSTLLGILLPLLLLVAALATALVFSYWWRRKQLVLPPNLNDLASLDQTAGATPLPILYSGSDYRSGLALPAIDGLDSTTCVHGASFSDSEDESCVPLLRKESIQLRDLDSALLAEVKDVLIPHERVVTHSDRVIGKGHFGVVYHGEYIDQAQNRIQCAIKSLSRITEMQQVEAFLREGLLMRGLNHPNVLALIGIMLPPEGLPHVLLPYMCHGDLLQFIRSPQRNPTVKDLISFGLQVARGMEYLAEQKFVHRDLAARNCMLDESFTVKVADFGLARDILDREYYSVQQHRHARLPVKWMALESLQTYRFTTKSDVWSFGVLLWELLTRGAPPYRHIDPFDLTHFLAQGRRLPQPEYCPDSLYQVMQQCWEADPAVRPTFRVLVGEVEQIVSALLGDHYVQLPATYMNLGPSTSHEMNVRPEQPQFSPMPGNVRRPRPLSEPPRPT

In experiment [1], “EGF-bound EGFR (QD-conjugated EGF-biotin on endogenous EGFR of live A431^RON cells) (from UniProt P00533 25-1210) (complex)” displayed an average lifetime of 2 s and a koff of 0.49 s⁻¹.

On to “HA-tagged RON (Recepteur d'Origine Nantais, MST1R) stably expressed in A431 cells (receptor)”, for which, in experiment [2], the average lifetime was 5.5 s and the off-rate (koff) was determined as 0.18 s⁻¹.

The values above are taken from article PMC8654365.
